Patent US7778779

Target: T1, 19-residue peptide comprising amino acids 788-806 of human HIF-1α, Q16665
T1 chain: DESGLPQLTSYDCEVNAPI

B1: FIH (Factor Inhibiting HIF), human (protein)
chain: MAATAAEAVASGSGEPREEAGALGPAWDESQLRSYSFPTRPIPRLSQSDPRAEELIENEEPVVLTDTNLVYPALKWDLEYLQENIGNGDFSVYSASTHKFLYYDEKKMANFQNFKPRSNREEMKFHEFVEKLQDIQQRGGEERLYLQQTLNDTVGRKIVMDFLGFNWNWINKQQGKRGWGQLTSNLLLIGMEGNVTPAHYDEQQNFFAQIKGYKRCILFPPDQFECLYPYPVHHPCDRQSQVDFDNPDYERFPNFQNVVGYETVVGPGDVLYIPMYWWHHIESLLNGGITITVNFWYKGAPTPKRIEYPLKAHQKVAIMRNIEKMLGEALGNPQEVGPLLNTMIKGRYN
- hydroxylation of the peptide (mass spectrometry of HPLC purified material): a mass difference of +8Da of the doubly charged ions, corresponding to +16Da in the peptide (oxygen)
